Test results taken from PMC7335789, “Bifurcated binding of the OmpF receptor underpins import of the bacteriocin colicin N into Escherichia coli” (The Journal of Biological Chemistry, 2020).
Ends that are not written are not given here.

T1: OmpF on E. coli cells (E. coli (endogenous in JW2203-1, …, UniProt P02931 23-362))
T1 sequence (looked up): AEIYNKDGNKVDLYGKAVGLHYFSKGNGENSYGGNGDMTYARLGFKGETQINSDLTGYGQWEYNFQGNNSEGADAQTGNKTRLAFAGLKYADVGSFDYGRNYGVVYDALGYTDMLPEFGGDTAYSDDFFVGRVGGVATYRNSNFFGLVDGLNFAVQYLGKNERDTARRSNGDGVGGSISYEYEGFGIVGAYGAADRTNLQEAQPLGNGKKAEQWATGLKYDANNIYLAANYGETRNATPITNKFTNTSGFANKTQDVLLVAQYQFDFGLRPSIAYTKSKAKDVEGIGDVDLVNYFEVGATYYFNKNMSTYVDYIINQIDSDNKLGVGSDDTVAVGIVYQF

B1: OmpF (natural protein, E. coli (endogenous in B^E3000), UniProt P02931 23-362, looked up)
chain: AEIYNKDGNKVDLYGKAVGLHYFSKGNGENSYGGNGDMTYARLGFKGETQINSDLTGYGQWEYNFQGNNSEGADAQTGNKTRLAFAGLKYADVGSFDYGRNYGVVYDALGYTDMLPEFGGDTAYSDDFFVGRVGGVATYRNSNFFGLVDGLNFAVQYLGKNERDTARRSNGDGVGGSISYEYEGFGIVGAYGAADRTNLQEAQPLGNGKKAEQWATGLKYDANNIYLAANYGETRNATPITNKFTNTSGFANKTQDVLLVAQYQFDFGLRPSIAYTKSKAKDVEGIGDVDLVNYFEVGATYYFNKNMSTYVDYIINQIDSDNKLGVGSDDTVAVGIVYQF
notes: also called OmpF trimer; purified OmpF lacking LPS

What was measured:
OmpF [1] = target: B1; assay: ITC; MicroCal ITC200, 25 C, 20 mM potassium phosphate pH 6.5, 1% beta-OG; purified OmpF trimer without LPS in the cell, ColN construct or peptide in the syringe; conditions: both partners purified
OmpF [2] = target: B1; assay: ITC; conditions: one partner purified
OmpF on E. coli cells = target: T1, OmpF on E. coli cells; assay: widefield fluorescence microscopy of labelled cells; conditions: one partner purified
[3] = target: the molecule itself; assay: native MS; 10 uM OmpF and 10 uM ColN in 100 mM ammonium acetate pH 6.9, 1% beta-OG, trypsin 37 C 2 h, gel filtration, OmpF fractions analysed in 200 mM ammonium acetate, 1% beta-OG

Row | Binder | Kd (OmpF [1]) [nM] | dH (OmpF [1]) [kcal/mol] | stoichiometry N (OmpF [1]) | Kd (OmpF [2]) [nM] | dH (OmpF [2]) [kcal/mol] | binding to cells with OmpF and OmpC (BW25113) relative to OmpF-only cells (OmpF on E. coli cells) [fold] | stoichiometry N [3]
1 | ColN^91-185 (ColN central domain) (domain or fragment, also called ColN-R) SAKVGEITITPDNSKPGRYISSNPEYSLLAKLIDAESIKGTEVYTFHTRKGQYVKVTVPDSNIDKMRVDYVNWKGPKYNNKLVKRFVSQFLLFRK | 14000 | -3.8 | 3.82 ColN^90-185/OmpF |  |  |  | 
2 | ColN^1-185 (ColN without the pore forming domain) (domain or fragment) MGSNGADNAHNNAFGGGKNPGIGNTSGAGSNGSASSNRGNSNGWSWSNKPHKNDGFHSDGSYHITFHGDNNSKPKPGGNSGNRGNNGDGASAKVGEITITPDNSKPGRYISSNPEYSLLAKLIDAESIKGTEVYTFHTRKGQYVKVTVPDSNIDKMRVDYVNWKGPKYNNKLVKRFVSQFLLFRK | 214 | -27.7 | 2.69 ColN^2-185/OmpF | 119 | -38.8 |  | 
3 | ColN^1-185-mCherry (domain or fragment, also called fluorescently labeled ColN) MGSNGADNAHNNAFGGGKNPGIGNTSGAGSNGSASSNRGNSNGWSWSNKPHKNDGFHSDGSYHITFHGDNNSKPKPGGNSGNRGNNGDGASAKVGEITITPDNSKPGRYISSNPEYSLLAKLIDAESIKGTEVYTFHTRKGQYVKVTVPDSNIDKMRVDYVNWKGPKYNNKLVKRFVSQFLLFRK |  |  |  |  |  | ~0.5 | 
4 | B1 |  |  |  |  |  |  | 3
5 | GSNGADNAHNNAFGGGKN-NH2 (also called ColN-OBS; ColN OBS; source: synthetic peptide, bought: Activotec) [ColN^2-19 peptide] | 1400 | -17.9 | 3.67 peptide/OmpF |  |  |  | 
